Substitutions are numbered along the chain they refer to.
Assays:
[1] = biological target: T1, cynoNectin4 antigen (cynomolgus (cyno), UniProt A0A2K5WES1 32-349); experiment: ELISA, coated antigen, PSB pH 6.0
T1 construct: construct not described; also called cynomolgus (cyno) Nectin-4
T1 sequence: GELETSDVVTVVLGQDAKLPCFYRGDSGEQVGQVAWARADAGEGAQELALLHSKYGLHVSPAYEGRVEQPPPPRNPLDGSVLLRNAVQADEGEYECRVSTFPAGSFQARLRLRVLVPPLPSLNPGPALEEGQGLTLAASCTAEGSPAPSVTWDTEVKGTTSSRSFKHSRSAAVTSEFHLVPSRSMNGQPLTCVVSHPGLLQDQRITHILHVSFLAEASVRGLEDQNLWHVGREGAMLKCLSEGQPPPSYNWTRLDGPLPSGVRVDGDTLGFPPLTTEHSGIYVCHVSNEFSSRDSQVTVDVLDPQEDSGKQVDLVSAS
Description: 1) Coat ELISA plates with 100 μL of 1 μg/mL recombinant human Nectin4 antigen or cynoNectin4 antigen in carbonate-bicarbonate coating buffer. […] 2) Cover plates with sealing film and incubate overnight at 4° C. [0444] 3) Decant plates and tap out residual liquid on a stack of paper towels. [0445] 4) Wash wells twice by dispensing 200 μL of pH 6.0 or pH 7.4 ELISA incubation buffer to the wells and completely aspirate the contents. [0446] 5) Add 200 μL of pH 6.0 or pH 7.4 ELISA incubation buffer to the wells. Cover with sealing film and place the plate onto a plate shaker set to 50 rpm for 60 minutes at room temperature. [0447] 6) Decant plates and tap out residual liquid on a stack of paper towels. […] 7) Serially dilute test articles in 3-fold dilutions starting at 3000 ng/mL in pH 6.0 or pH 7.4 ELISA incubation buffer. […] 8) Add 100 μL/well of diluted test articles to the plates [0450] 9) Cover with sealing film and place the plates onto a plate shaker set to 50 rpm for 60 minutes at room temperature. [0451] 10) Decant plates and tap out residual liquid on a stack of paper towels. [0452] 11) Wash wells three times by dispensing 200 μL of pH 6.0 or pH 7.4 ELISA wash buffer to the wells and completely aspirate the contents. […] 12) Dilute the HRP secondary antibody at 1:2500 in pH 6.0 or pH 7.4 ELISA incubation buffer. [0454] […] 14) Cover with sealing film and place the plates onto a plate shaker set to 50 rpm for 60 minutes at room temperature. […] 15) Decant plates and tap out residual liquid on a stack of paper towels. […] 16) Wash wells three times by dispensing 200 μL of pH 6.0 or pH 7.4 ELISA wash buffer to the wells and completely aspirate the contents. [0458] 17) Dispense 50 μL per well of the TMB substrate solution into all wells of the plates.

[2] = biological target: T2, recombinant human Nectin4 antigen (human, UniProt Q96NY8 32-349); experiment: pH range ELISA, 30 ng/mL, pH of 50% binding activity
T2 construct: construct not described
T2 sequence (looked up): T1 sequence with A39V, V230I
Description: 1) Coat ELISA plates with 100 μL of 1 μg/mL recombinant human Nectin4 antigen in carbonate-bicarbonate coating buffer [0462] 2) Cover plates with sealing film and incubate overnight at 4° C. […] 3) Decant plates and tap out residual liquid on a stack of paper towels [0464] 4) Wash wells twice by dispensing 200 μL of various pH incubation buffer to the wells and completely aspirate the contents [0465] 5) Add 200 μL of various pH incubation buffers (pH5.5, 6.0, 6.2, 6.5, 6.7, 7.0 and 7.4) to the wells. Cover with sealing film and place the plate onto a plate shaker (set to 200 rpm) for 60 minutes at room temperature [0466] 6) Decant plates and tap out residual liquid on a stack of paper towels [0467] 7) Serially dilute test substances in various pH incubation buffers (pH5.5, 6.0, 6.2, 6.5, 6.7, 7.0 and 7.4) to 30 ng/mL [0468] 8) Add 100 μL/well of diluted test substances to the plates [0469] 9) Cover with sealing film and place the plates onto a plate shaker (set to 200 rpm) for 60 minutes at room temperature. [0470] 10) Decant plates and tap out residual liquid on a stack of paper towels. […] 12) Dilute the HRP secondary antibody at 1:2500 in various pH incubation buffers (pH5.5, 6.0, 6.2, 6.5, 6.7, 7.0 and 7.4) [0473] 13) Add 100 μL HRP secondary antibody diluted in various pH incubation buffers (pH5.5, 6.0, 6.2, 6.5, 6.7, 7.0 and 7.4) to each well. […] 14) Cover with sealing film and place the plates onto a plate shaker (set to 200 rpm) for 60 minutes at room temperature. [0475] 15) Decant plates and tap out residual liquid on a stack of paper towels. […] 16) Wash wells three times by dispensing 200 μL of various pH wash buffer (pH5.5, 6.0, 6.2, 6.5, 6.7, 7.0 and 7.4) to the wells and completely aspirating the contents [0477] 17) Dispense 50 μL per well of the TMB substrate solution into all wells of plates.

B1: BAP-143-wildtype (antibody, V domains shown)
VH: EVQLVESGGGLVQPGGSLRLSCAASGFTFSSYNMNWVRQAPGKGLEWVSYISSSSSTIYYADSVKGRFTISRDNAKNSLSLQMNSLRDEDTAVYYCARAYYYGMDVWGQGTTVTVSS
VL: DIQMTQSPSSVSASVGDRVTITCRASQGISGWLAWYQQKPGKAPKFLIYAASTLQSGVPSRFSGSGSGTDFTLTISSLQPEDFATYYCQQANSFPPTFGGGTKVEIK
notes: 150 kDa used in SPR; also called BAP143-00-00; benchmark (BM)
- EC50 [1]: 0.0146 µg/mL

B2: BAP-143-06-24-16 (antibody, V domains shown)
VH: EVQLVQSGAEVKKPGATVKISCKVSGFTFSSYNMNWIRQSPSRGLEWLGYISSSSSTIYYADSVKGRFTISRDNSKNTLYLQMNSLRAEDTAVYYCARAYYYGDDVWGQGTLVTVSS
VL: B1 VL with R24H
notes: Used as a conjugate with a linker payload (CAB ADC)
- EC50 [1]: 0.0261 µg/mL

B3: BAP-143-06-33-03 (antibody, V domains shown)
VH: QVQLVQSGAEVKKPGASVKVSCKASGFTFSSYNMNWVRQARGQRLEWIGYISSSSSTIYYADSVKGRFTISRDNSKNTLYLQMNSLRAEDTAVYYCARAYYYGMDKWGQGTLVTVSS
VL: B1 VL with F94E
notes: as for B2
- pH inflection point [2]: 6.85 pH
- EC50 [1]: 0.0395 µg/mL

B4: BAP-143-06-33-16 (antibody, V domains shown)
VH: B2 VH
VL: B1 VL with L33E
notes: as for B2
- pH inflection point [2]: 6.6 pH
- EC50 [1]: 0.0384 µg/mL

B5: BAP-143-00-01 (antibody, V domains shown)
VH: B1 VH
VL: B1 VL with L33E
notes: as for B2
- pH inflection point [2]: 6.58 pH

B6: BAP-143-07-03-12 (antibody, V domains shown)
VH: B1 VH with V106K
VL: B1 VL with L33E
notes: as for B2
- pH inflection point [2]: 6.51 pH
- EC50 [1]: 0.0239 µg/mL
